In patent EP0691409B1:

Biological target: mutant pro-urokinase (human) (UniProt P00749)
Experiment: cell-based or functional assay

Substance	not activated MMP (ΔA/h^2*1000); time 0 h, 0.15 µM modified pro-urokinase	not activated MMP (ΔA/h^2*1000); time 1 h	not activated MMP (ΔA/h^2*1000); time 2 h	not activated MMP (ΔA/h^2*1000); time 3 h	not activated MMP (ΔA/h^2*1000); time 4 h	not activated MMP (ΔA/h^2*1000); time 6.5 h	not activated MMP (ΔA/h^2*1000); time 24 h	not activated MMP (ΔA/h^2*1000); time 31 h	not activated MMP (ΔA/h^2*1000); time 48 h	not activated MMP (ΔA/h^2*1000); time 48 h + EDTA	activated MMP (ΔA/h^2*1000); time 0 h, 0.15 µM modified pro-urokinase	activated MMP (ΔA/h^2*1000); time 1 h	activated MMP (ΔA/h^2*1000); time 2 h	activated MMP (ΔA/h^2*1000); time 3 h	activated MMP (ΔA/h^2*1000); time 4 h	activated MMP (ΔA/h^2*1000); time 6.5 h	activated MMP (ΔA/h^2*1000); time 24 h	activated MMP (ΔA/h^2*1000); time 31 h	activated MMP (ΔA/h^2*1000); time 48 h	activated MMP (ΔA/h^2*1000); time 48 h + EDTA
mixture of human MMP2 and MMP9, not activated	< 0.05 ΔA/h^2·1000	< 0.05 ΔA/h^2·1000	< 0.05 ΔA/h^2·1000	< 0.05 ΔA/h^2·1000	< 0.05 ΔA/h^2·1000	< 0.05 ΔA/h^2·1000	1 ΔA/h^2·1000	2.1 ΔA/h^2·1000	14 ΔA/h^2·1000	< 0.05 ΔA/h^2·1000	–	–	–	–	–	–	–	–	–	–
mixture of human MMP2 and MMP9, activated with APMA	–	–	–	–	–	–	–	–	–	–	< 0.05 ΔA/h^2·1000	0.3 ΔA/h^2·1000	< 0.05 ΔA/h^2·1000	< 0.05 ΔA/h^2·1000	1.1 ΔA/h^2·1000	1.3 ΔA/h^2·1000	3.6 ΔA/h^2·1000	35.9 ΔA/h^2·1000	48.9 ΔA/h^2·1000	< 0.05 ΔA/h^2·1000
